In article doi:10.1101/2023.03.09.531992 (bioRxiv, 2023):

T1: S. pombe αWD40 domain (N-terminal WD40 domain of α-COPI), wild type (S. pombe, UniProt Q96WV5 1-327)
T1 sequence: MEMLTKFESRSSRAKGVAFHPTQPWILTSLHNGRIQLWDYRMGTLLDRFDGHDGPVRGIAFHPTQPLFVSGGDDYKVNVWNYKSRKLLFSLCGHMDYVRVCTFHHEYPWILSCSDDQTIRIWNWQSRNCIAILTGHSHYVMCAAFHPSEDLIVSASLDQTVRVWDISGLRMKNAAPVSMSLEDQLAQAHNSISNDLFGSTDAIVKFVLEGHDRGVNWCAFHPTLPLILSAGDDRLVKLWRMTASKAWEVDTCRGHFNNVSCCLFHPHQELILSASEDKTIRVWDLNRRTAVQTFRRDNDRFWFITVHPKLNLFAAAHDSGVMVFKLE

T2: S. cerevisiae β’WD40 domain (N-terminal WD40 domain of β’-COPI), wild type (S. cerevisiae, UniProt P41811 1-300)
T2 sequence: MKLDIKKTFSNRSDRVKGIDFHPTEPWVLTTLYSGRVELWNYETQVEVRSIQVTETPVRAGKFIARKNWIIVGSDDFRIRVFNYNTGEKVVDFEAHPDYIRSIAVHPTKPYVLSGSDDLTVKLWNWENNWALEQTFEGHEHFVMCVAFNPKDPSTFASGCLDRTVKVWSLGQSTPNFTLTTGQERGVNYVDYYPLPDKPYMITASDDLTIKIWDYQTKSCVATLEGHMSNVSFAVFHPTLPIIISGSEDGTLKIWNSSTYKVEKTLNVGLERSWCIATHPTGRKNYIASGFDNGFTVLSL


How the values were obtained:
[1] = target: T1, S. pombe αWD40 domain (N-terminal WD40 …); assay: NMR titration
[2] = target: T2, S. cerevisiae β’WD40 domain (N-terminal …); assay: crystal structure

Binder	binding result [1]	binding result [2]
15N-labeled wild-type SARS-CoV-2 S C-terminal tail 21-mer peptide (NMR) (15N isotope label) peptide: not shown	binds	–
GVKLHYT [wild-type SARS-CoV-2 S tail heptapeptide (residues 1267-1273), as co-crystallised]	–	binds
